Measured values reported in patent US20090317428A1.

Molecular target: HLA-DR molecules of the human B-lymphoblastoid cell line Awells (HLA-DRB1*0401, HLA-DRB4*0101) (human)
Assay: cell-based or functional assay

- inhibition of T-helper cell line activation by Awells-Ii-cyclin D1 transfectants: 71.2%
B1: L243 (anti-HLA-DR) (antibody, from another filing, V domains shown)
VH: QIQLVQSGPELKKPGETVKISCKASGFTFTNYGMNWVKQAPGKGLKWMGWINTYTREPTYADDFKGRFAFSLETSASTAYLQINNLKNEDTAKYFCARDITAVVPTGFDYWGQGTTLTVSS
VL: DIQMTQSPASLSVSVGETVTITCRASENIYSNLAWYRQKQGKSPQLLVFAASNLADGVPSRFSGSGSGTQYSLKINSLQSEDFGDYYCQHFWTTPWAFGGGTNLEIKR
